“Also recorded” adds a separate entry of the source.
T1: EHD2(T72A) (Mus musculus, UniProt Q8BH64, T72A)
T1 construct: Mouse EHD2 full-length protein and all mutants were expressed as N-terminal His-fusions followed by a PreScission cleavage site; His (N, cleaved yes); made in house; host or cells: Escherichia coli BL21 DE3 Rosetta
T1 sequence (Q8BH64 1-543 T72A): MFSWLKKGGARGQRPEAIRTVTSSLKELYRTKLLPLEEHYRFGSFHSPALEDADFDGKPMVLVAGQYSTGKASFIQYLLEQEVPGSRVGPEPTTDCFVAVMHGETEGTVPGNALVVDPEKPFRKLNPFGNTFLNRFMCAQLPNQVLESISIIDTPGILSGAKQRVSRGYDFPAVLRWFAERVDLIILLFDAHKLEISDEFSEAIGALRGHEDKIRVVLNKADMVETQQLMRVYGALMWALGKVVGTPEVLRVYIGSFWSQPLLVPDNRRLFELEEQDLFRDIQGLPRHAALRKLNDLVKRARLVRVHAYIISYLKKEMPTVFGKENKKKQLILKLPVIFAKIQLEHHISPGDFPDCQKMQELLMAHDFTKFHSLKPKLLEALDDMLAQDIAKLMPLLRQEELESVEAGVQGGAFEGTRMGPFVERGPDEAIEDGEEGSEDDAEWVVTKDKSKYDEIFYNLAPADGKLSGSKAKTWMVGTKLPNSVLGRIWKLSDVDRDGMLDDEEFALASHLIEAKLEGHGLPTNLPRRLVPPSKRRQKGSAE

T2: T94A mutant of EHD2 (Mus musculus, UniProt Q8BH64, T94A)
T2 construct: Mouse EHD2 full-length protein and all mutants were expressed as N-terminal His-fusions followed by a PreScission cleavage site; His (N, cleaved yes); made in house; host or cells: Escherichia coli BL21 DE3 Rosetta
T2 sequence (Q8BH64 1-543 T94A): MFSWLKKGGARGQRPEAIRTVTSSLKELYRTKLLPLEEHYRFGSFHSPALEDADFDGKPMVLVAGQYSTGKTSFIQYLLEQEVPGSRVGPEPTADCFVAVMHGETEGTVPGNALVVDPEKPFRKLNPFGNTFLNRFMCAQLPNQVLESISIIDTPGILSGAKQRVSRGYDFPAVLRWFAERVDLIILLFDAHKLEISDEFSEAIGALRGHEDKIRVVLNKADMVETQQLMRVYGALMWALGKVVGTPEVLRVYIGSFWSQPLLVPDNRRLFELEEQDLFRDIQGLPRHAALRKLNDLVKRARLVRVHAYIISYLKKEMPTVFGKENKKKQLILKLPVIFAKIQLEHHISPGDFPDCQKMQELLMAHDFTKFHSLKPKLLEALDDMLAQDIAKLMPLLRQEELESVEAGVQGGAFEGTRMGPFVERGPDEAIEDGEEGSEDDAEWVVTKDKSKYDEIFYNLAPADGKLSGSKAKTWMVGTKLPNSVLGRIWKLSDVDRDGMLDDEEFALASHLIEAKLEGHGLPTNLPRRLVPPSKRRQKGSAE

T3: EHD2 (Mus musculus, UniProt Q8BH64)
T3 construct: Mouse EHD2 full-length protein and all mutants were expressed as N-terminal His-fusions followed by a PreScission cleavage site; His (N, cleaved yes); made in house; host or cells: Escherichia coli BL21 DE3 Rosetta
T3 sequence (Q8BH64 1-543): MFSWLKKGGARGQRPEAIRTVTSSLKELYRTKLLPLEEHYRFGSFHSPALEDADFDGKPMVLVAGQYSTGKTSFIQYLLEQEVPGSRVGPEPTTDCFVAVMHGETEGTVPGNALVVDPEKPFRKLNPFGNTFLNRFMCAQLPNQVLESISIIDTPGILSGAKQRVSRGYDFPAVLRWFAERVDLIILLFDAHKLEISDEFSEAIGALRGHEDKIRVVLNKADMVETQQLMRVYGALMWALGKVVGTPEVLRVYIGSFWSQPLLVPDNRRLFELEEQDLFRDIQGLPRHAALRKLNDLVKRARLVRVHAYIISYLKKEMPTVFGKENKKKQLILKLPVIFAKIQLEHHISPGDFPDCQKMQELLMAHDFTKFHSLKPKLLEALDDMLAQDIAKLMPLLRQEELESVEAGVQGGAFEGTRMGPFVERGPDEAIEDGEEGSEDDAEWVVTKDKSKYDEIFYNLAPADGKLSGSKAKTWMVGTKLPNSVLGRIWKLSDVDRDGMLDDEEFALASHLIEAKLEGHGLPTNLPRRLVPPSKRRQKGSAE


Tests used:
[1] = molecular target: T1, EHD2(T72A); assay: ITC nucleotide binding to EHD2(T72A) P-loop mutant; conditions: ITC at 10° C.
Protocol: (§1) Amino acid numbering corresponds to mouse EHD2. b, EHD2 binds to adenine nucleotides, as determined by ITC. For clarity, ΔΔH=ΔHn−ΔH1 is plotted. […] Images were acquired close to the basal cell surface. f, Nucleotide hydrolysis was measured by HPLC in the absence (empty symbols) or presence of Folch liposomes (filled symbols). Data represent mean and standard deviation for two (intrinisic reactions) or three (stimulated reactions) independent experiments.
(§2) ITC measurements were performed at 10° C. in 20 mM HEPES (pH 7.5), 300 mM NaCl, 2 mM MgCl2. Liposome binding assays were performed as described previously (www.endocytosis.org). Multiple turnover ATPase assays were performed in 20 mM HEPES (pH 7.5), 135 mM NaCl, 15 mM KCl, 1 mM MgCl2 at 30° C. with 10 μM EHD2 (or mutants) as enzyme and 100 μM ATP as substrate, in the absence or presence of 1 mg/ml Folch liposomes (Sigma-Aldrich).
Mouse full-length EHD2 was expressed in bacteria and purified to homogeneity (FIG. 5). The purified protein was nucleotide-free as judged by HPLC analysis. […] It was previously reported that EHDs—despite having a predicted G-domain—bind to adenine nucleotides^15. […] We still refer to this domain as a G-domain because the sequence and fold (see below) are clearly similar to other G-domains. […]

[2] = molecular target: T2, T94A mutant of EHD2; assay: ITC nucleotide binding to EHD2 T94A mutant; conditions: ITC as in FIG. 1b
Protocol: Nucleotide hydrolysis was measured as described in FIG. 1f. In vitro tubulation activity of PS liposomes was analysed as described in FIG. 1d. f, EGFP-tagged mutants were over-expressed in HeLa cells. […] For each construct, three independent experiments with ≈50 cells/experiments were analysed.
as §2
In small GTPases, the role of positioning the water molecule is assigned to a catalytic glutamine from switch II^26. We studied the role of ATP hydrolysis to gain insights into the function of EHD2 in vivo. […] To confirm the role of ATP hydrolysis in EHD function we re-introduced a catalytic glutamine in the active site, at the position normally found for small GTPases (I157Q). […] Many of these puncta were highly mobile as determined by live-cell microscopy.

[3] = molecular target: T3, EHD2; assay: ITC nucleotide binding to EHD2; conditions: ITC at 10° C.
Protocol: as §1, §2
Mouse full-length EHD2 was expressed in bacteria and purified to homogeneity (FIG. 5). The purified protein was nucleotide-free as judged by HPLC analysis. […] It was previously reported that EHDs—despite having a predicted G-domain—bind to adenine nucleotides^15. […] We still refer to this domain as a G-domain because the sequence and fold (see below) are clearly similar to other G-domains. […] Using synthetic liposomes containing various different phosphatidyl-inositols (PI) (FIG. 1c) we observed best binding to liposomes containing PI(4,5)bisphosphate (PIP2).

[4] = molecular target: the molecule itself; assay: negative stain EM on PS liposomes
[5] = Negative stain EM of liposome tubulation/oligomerisation; conditions: 2.5 μM protein, PS liposomes
Protocol: as §1
EHD2 was incubated with the indicated liposomes in the presence and absence of nucleotides and analysed by EM as described in Methods. a, EHD2 deformed PS liposomes into tubular networks, here in the presence of ATP-γ-S. b, Enlarged views of the indicated area in a. Note the presence of regularly spaced EHD2 rings (some are indicated with arrows). This even spacing may be due to the curvature stress generated by an EHD2 ring along the axis of the lipid tubule which might disfavour binding of the next ring in the direct vicinity (see below). c, Some of the lipid tubules (especially at higher protein concentration) were tightly packed with EHD2 oligomeric rings. d,e In the presence of ADP and in the absence of nucleotide (f,g), EHD2 also tubulated PS liposomes and formed ring-like structures around the tubules. e,g are enlarged views of the indicated areas in d and f, respectively.
Reactions were started by the addition of the protein to the final reaction mix and nucleotide hydrolysis was followed using standard HPLC measurement^27. Initial rates were determined by applying a linear fit to data points up to 40% nucleotide hydrolysis. For electron microscopic studies, 2.5 μM EHD2 in 20 mM HEPES (pH 7.5), 150 mM NaCl, 1 mM MgCl2 was incubated for 15 min at 25° C. in the presence of 1 mM nucleotide and 0.05 mg/ml (final concentration) of the indicated liposomes. Samples were spotted on carbon-coated copper grids (Canemco and Marivac) and negatively stained with 2% uranyl acetate.
Nucleotide-independence of liposome tubulation in vitro is also observed for dynamin^16. No noticeable tubule fission or alteration in tubule diameter was found for EHD2 in the presence of ATP. […] Folch liposomes were also tabulated by EHD2. However, with synthetic liposomes containing only 2.5% PIP2 and in the absence of PS, the amount of EHD binding was reduced, and in this less favourable binding condition we only observed tubulation in the presence of ATP-γ-S and ADP but not in the absence of nucleotides (FIG. 7).

[6] = molecular target: T3, EHD2; assay: Multiple turnover ATPase assay (nucleotide hydrolysis by HPLC) with or without Folch liposomes; type: biochemical; conditions: presence of Folch liposomes
Summary of the method: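 10 μM EHD2 with 100 μM ATP in 20 mM HEPES pH 7.5, 135 mM NaCl, 15 mM KCl, 1 mM MgCl2 at 30 °C, with or without 1 mg/ml Folch liposomes. Reactions started by protein addition; hydrolysis tracked by HPLC, initial rates from linear fit up to 40% hydrolysis.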

[7] = system: HeLa cells; assay: Over-expression of EGFP-tagged EHD2 and mutants in HeLa cells (confocal / live imaging); type: cell-based

Row | Molecule | binding to EHD2(T72A) by ITC [1] | affinity of the T94A mutant to ATP-γ-S by ITC [2] | n (fitted ITC value), nucleotide binding to EHD2 [3] | Kd ([3]; 20 mM HEPES (pH 7.5), 300 mM NaCl, 2 mM MgCl2, read-out: affinity to EHD2 determined by ITC) | binding result [4] | liposome tubulation / oligomerisation by EM [5] | membrane-stimulated ATPase activity (in words) [6] | distribution of EGFP-tagged protein over-expressed in HeLa cells ([7]; 24 h after transfection, fixed) | dynamics of tubules and puncta by EPI-fluorescence live imaging ([7]; over-expressed 24 h, imaged approximately 30 min)
1 | Nc1ncnc2c1ncn2[C@@H]1O[C@H](COP(=O)(O)OP(=O)(O)OP(O)(O)=S)[C@@H](O)[C@H]1O [ATP-γ-S] | no binding observed; also recorded: prevented binding | nearly wild-type affinity | 0.96 | 13 ± 3 µM | – | – | – | – | –
2 | EHD2 T94A (enzyme, mouse, UniProt Q8BH64 1-543, looked up, mature; also called T94A mutant) MFSWLKKGGARGQRPEAIRTVTSSLKELYRTKLLPLEEHYRFGSFHSPALEDADFDGKPMVLVAGQYSTGKTSFIQYLLEQEVPGSRVGPEPTADCFVAVMHGETEGTVPGNALVVDPEKPFRKLNPFGNTFLNRFMCAQLPNQVLESISIIDTPGILSGAKQRVSRGYDFPAVLRWFAERVDLIILLFDAHKLEISDEFSEAIGALRGHEDKIRVVLNKADMVETQQLMRVYGALMWALGKVVGTPEVLRVYIGSFWSQPLLVPDNRRLFELEEQDLFRDIQGLPRHAALRKLNDLVKRARLVRVHAYIISYLKKEMPTVFGKENKKKQLILKLPVIFAKIQLEHHISPGDFPDCQKMQELLMAHDFTKFHSLKPKLLEALDDMLAQDIAKLMPLLRQEELESVEAGVQGGAFEGTRMGPFVERGPDEAIEDGEEGSEDDAEWVVTKDKSKYDEIFYNLAPADGKLSGSKAKTWMVGTKLPNSVLGRIWKLSDVDRDGMLDDEEFALASHLIEAKLEGHGLPTNLPRRLVPPSKRRQKGSAE | – | – | – | – | binds | oligomerised around PS liposomes | did not show any membrane-stimulated ATPase activity | extensive tubulation with no punctate stained; also recorded: labelled extensive tubular structures with essentially, no punctate staining | only tubules, and these are mostly static

Source: patent US20120214173A1, “Methods of Identifying Modulators of an Ehd Polypeptide” (priority 2007, published 2012)
